Tested on: CC(=O)Oc1ccc2ccccc2c1
Experiment: purified protein
Details: pH 7 potassium phosphate, 60 °C, 0.1-0.95 mM substrate

Substance: D1CarE5 (Alicyclobacillus sp. D-1)
- Km: 1000 µM
